Data from patent publication US10857209B2, “Lysosomal acid lipase and PPAR gamma ligands as immune therapies for cancer treatment” (Indiana University Research and Technology Corporation, priority 2016, dated 2020).

Legend:
PPARγ = biological target: T1, PPARγ (Mus musculus, UniProt P37238); settings: previously reported; cited from earlier work
T1 construct: host or cells: lal-/- mice (lung)
T1 sequence (P37238 1-505): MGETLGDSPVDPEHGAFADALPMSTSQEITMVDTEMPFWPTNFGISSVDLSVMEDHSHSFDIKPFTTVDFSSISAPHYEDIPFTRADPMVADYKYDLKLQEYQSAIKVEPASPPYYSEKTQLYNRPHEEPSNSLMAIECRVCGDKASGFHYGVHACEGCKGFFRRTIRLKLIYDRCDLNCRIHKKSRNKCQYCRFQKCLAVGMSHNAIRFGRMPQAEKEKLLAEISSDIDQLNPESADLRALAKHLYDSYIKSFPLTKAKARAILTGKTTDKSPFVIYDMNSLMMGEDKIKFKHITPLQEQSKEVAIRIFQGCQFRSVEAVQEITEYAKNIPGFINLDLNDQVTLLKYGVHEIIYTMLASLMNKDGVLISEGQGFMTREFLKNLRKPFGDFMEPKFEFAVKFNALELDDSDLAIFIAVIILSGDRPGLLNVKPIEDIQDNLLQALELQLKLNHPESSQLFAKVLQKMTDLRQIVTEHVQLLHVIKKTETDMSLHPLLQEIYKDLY

B16 melanoma cells [1] = experiment: B16 melanoma metastasis in CCSP-Tg/KO mice; assay type: in vivo, mouse; settings: lung epithelial-specific expression in lal−/− mice; 5×10^5 cells i.v., two weeks
Description: For the tumor metastasis model, 5×10^5 B16 melanoma cells in 200 μL PBS were injected into the mice via tail vein. Two weeks after the injection, the mice were sacrificed and the lungs were harvested for examination of metastasis.

[2] = Tissue lipid storage in LAP-Tg/KO mice (hepatocyte-specific hLAL expression); assay type: in vivo, mouse; settings: hepatocyte transgenic expression in lal−/− mice (doxycycline-untreated LAP-Tg/KO)
Excerpt: (§1) LAP-tTA/(TetO)7-CMV-hLAL; lal^−/− (LAP-Tg/KO) triple mice of the FVB/N background was established by cross-breeding of LAP-tTA transgenic mice (Jackson's Laboratory, Bar Harbor, Me.) with a previously generated (tetO)7-CMV-hLAL transgenic mice into lal^−/− mice. This triple transgenic mouse model was hepatocyte-specific Tet-off expression of wild-type hLAL in lal^−/− mice under the control of the LAP. All scientific protocols that involved the use of animals were approved by the Institutional Animal Care and Use Committee of Indiana University School of Medicine and followed guidelines established by the Panel on Euthanasia of the American Veterinary Medical Association. Animals were housed in a secured animal facility at Indiana University School of Medicine.
Total tissue lipids were extracted from the liver and small intestine by the Folch method (Folch et al., J Biol. Chem 1957, […]:497-509). Concentrations of CEs and TGs were determined as described in Due et al., J Lipid Res 2001, 42:489-500 and Du et al., J Immunol 2009, 182:1648-1659).
Frozen tissue sections were prepared from the liver and intestine after a standard cryostat procedure. Tissue section slides were stained with Oil Red-O solution (0.5% in propylene glycol) in a 60° C. oven for 10 minutes and placed in 85% propylene glycol for 1 minute; slides were counter-stained in hematoxylin.

B16 melanoma cells [3] = experiment: B16 melanoma metastasis in LAP-Tg/KO mice; assay type: in vivo, mouse; settings: hepatocyte-specific expression in lal−/− mice; 5×10^5 cells i.v., two weeks
Excerpt: as §1
Tissues from the liver, intestine, and lung were collected after mice were anesthetized. All tissues were washed with phosphate-buffered saline and dehydrated by a series of increasing ethanol concentrations, followed by paraffin embedding. Sections were stained with anti-Ki67 antibody, anti-LAL antibody, and anti-F4/80 antibody by the histologic core.
For experimental metastasis, 5×10^5 B16 melanoma cells in 200 μL of phosphate-buffered saline were injected into the mice via tail vein. Two weeks after the injection, the mice were sacrificed, and the livers and lungs were harvested for examination of metastasis.

[4] = test system: LLC or B16 melanoma cells; experiment: In vitro BALF treatment of tumor cells (proliferation, wound healing); assay type: cell-based, mouse
Description: BALF was harvested by 1 mL PBS, and cells were removed by centrifugation. To determine the effect of BALF on tumor cell proliferation, B16 melanoma or LLC cells (5×10^3) were seeded into a well of 96-well plates in 100 μL DMEM supplemented with 10% FBS, and then treated with 100 μL BALF harvested from lal^+/+, lal^−/− or CCSP-Tg/KO triple mice. Seventy-two hours later, the number of B16 melanoma or LLC cells was counted.
To analyze the effects of BALF on tumor cell or EC migration, in vitro wound healing assays were performed. Briefly, tumor cells or ECs were seeded at a density of 1.5×10^5 cells/well into a 24-well plate and incubated overnight to form a confluent monolayer. Scratch was created by scraping the cell monolayer in a straight line with a p200 pipet tip. After washing 3 times with PBS, the medium was changed with 250 μL DMEM containing 10% FBS and 5 μg/mL mitomycin C (Sigma-Aldrich). Then 250 μL BALF from lal^+/+, lal^−/− or CCSP-Tg/KO triple mice were added to the well. Cells were kept on culture at 37° C., 5% CO2. Images were taken at 0 and 15 hours after creating the scratch. Migration was estimated by measuring the distances from one side of the scratch to the other side using Image Pro-Plus software (Media Cybernetics, Rockville, Md., USA).

cytokines and chemokines = experiment: Cytokines and chemokines in plasma (ELISA) and liver (qPCR) of LAP-Tg/KO mice; assay type: in vivo, mouse
Description: Total RNAs were purified from livers or isolated hepatocytes using RNeasy Mini Kits according to the manufacturer's instruction (Qiagen). Quantitative real-time RT-PCR (qPCR) was performed as described in Wu et al., Blood 2012, 119:115-126). Relative gene expression levels were analyzed using the 2^−ΔΔCT method. Primers of mouse IL-6, mouse granulocyte-macrophage colony-stimulating factor (GM-CSF), mouse macrophage colony-stimulating factor, mouse tumor necrosis factor (TNF)-α, mouse IL-2, mouse IL-4, mouse IL-17, mouse interferon (IFN)-γ, mouse monocyte chemotactic protein-1 (MCP-1), mouse chemokine ligand (CCL)-3, mouse CCL4, mouse CCL5, mouse CXCL10, and glyceraldehyde-3-phosphate dehydrogenase for qPCR were described in Qu et al. Cancer Res 2009, 69:7252-7261; Zhao et al., Oncogene 2014, 34:1938-1948.
The expression levels of IL-6, GM-CSF, MCP-1 (BD Bio-sciences), and CCL5 (R&D Systems, Minneapolis, Minn.) in the plasma and hepatocyte culture medium were measured using enzyme-linked immunosorbent assay (ELISA) kits according to the manufacturer's instructions.

[5] = doxycycline-untreated LAP-Tg/KO triple mice (hLAL on)

## 9-hydroxyoctadecadienoic acid [9-HODE]
PPARγ
  lal−/− pulmonary inflammation and aberrant gene expression: significantly rescued

B1: hLAL: human lysosomal acid lipase expressed from a doxycycline-controlled tissue-specific transgene in lal−/− mice; never administered as a protein (protein)
chain: GPKPVVFLQHGLLADSSNWVTNLANSSLGFILADAGFDVWMGNSRGNTWSRKHKTLSVSQDEFWAFSYDEMAKYDLPASINFILNKTGQEQVYYVGHSQGTTIGFIAFSQIPELAKRIKMFFALGPVASVAFCTSPMAKLGRLPDHLIKDLFGDKEFLPQSAFLKWLGTHVCTHVILKELCGNLCFLLCGFNERNLNMSRVDVYTTHSPAGTSVQNMLHWSQAVKFQKFQAFDWGSSAKNYFHYNQSYPPTYNVKDMLVPTAVWSGGHDWLADVYDVNILLTQITNLVFHESIPEWEHLDFIWGLDAPWRLYNKIINLMRKYQ
modifications: left off: small tags and cut ends
notes: human lysosomal acid lipase expressed from a doxycycline-controlled tissue-specific transgene in lal−/− mice; never administered as a protein
B16 melanoma cells [1]
  B16 melanoma cell metastasis in the lung: reduced B16 melanoma cell metastasis
[2]
  lipid storage (cholesterol and triglyceride) in liver, spleen and small intestine: completely cleaned up
B16 melanoma cells [3]
  B16 melanoma cell metastasis in liver and lung: reduced B16 melanoma cell metastasis
[4]; LLC or B16 cells cultured 72 hours with BALF from doxycycline-treated CCSP-Tg/KO mice
  tumor cell proliferation in vitro: reduced
[4]; LLC or B16 cells, wound healing 15 hours, BALF from doxycycline-treated CCSP-Tg/KO mice, mitomycin C
  tumor cell migration in vitro: reduced
Cytokines and chemokines; [5]
  liver IL-4 and IL-17 mRNA levels: unchanged
  liver mRNA levels of IL-2 and IFN-γ: reduced mRNA levels
  liver mRNA levels of IL-6, GM-CSF, M-CSF and TNF-α: significantly down-regulated
  liver mRNA of chemokines MCP-1, CCL3, CCL4, CCL5 and CXCL10: markedly down-regulated
Cytokines and chemokines; untreated (hLAL on) vs doxycycline-treated LAP-Tg/KO mice
  plasma concentrations of IL-6, GM-CSF, MCP-1 and CCL5 (ELISA): decreased
